The results in this text go back to patent publication US20040265295A1 (WISCONSIN ALUMNI RESEARCH FOUNDATION, published 2004).

Test [1] addresses T1, GST-talin head (human talin1 head region 1-435) (human, UniProt Q9Y490 1-435).
T1 construct: The construct is human talin1 head region (1-435) cloned from HEK293T cells; also called wild-type GST-talin; not shown: GST (and further tags) of the pET42 vector
In words: GST pull-down competition in vitro; competitor His-β1-integrin tail. As for the experimental part:
(§1) Talin interactions were assessed by GST pull-down using recombinant GST-talin head, His-PIPKIγ635 C-terminus, His-PIPKIγ661 wild-type or Tyr to Phe mutant C-terminus, and His-β1-integrin tail. […] Peptides containing the PIPKIγ661/talin binding sequence (Di Paolo, et al. (2002) supra) were designed to include phosphorylated Tyr⁶⁴⁴₁, phosphorylated Tyr⁶⁴⁹₁ and dual phosphorylated Tyr⁶⁴⁴ and Tyr⁶⁴⁹. The phosphorylated peptides displaced PIPKIγ661 from talin more efficiently than the non-phosphorylated peptide in HEK293T cell lysates.
(§2) Purified GST-talin head proteins were incubated with PIPKIγ661 tails or β1-integrin tail, together with Glutathione SEPHAROSE™ 4 Fast Flow (Amersham Biosciences, Piscataway, N.J.), in Buffer B (PBS, 0.2% NP-40, 2 mM DTT) at 4° C. for 4 hours. The beads were washed three times with Buffer B and analyzed by western blot. For competition assays, GST-talin head proteins were incubated with peptides or competing proteins for 2 hours, then the binding proteins were added and the mixtures were incubated for another 4 hours.

Test [2] deals with T1, GST-talin head (human talin1 head …). The test is described as follows: peptide competition of integrin tail (competitor) binding to GST-talin. As to the method: as §2
Another test addresses tensin (UniProt Q9HBL0 1-1839, limits assumed). The test is described as follows: co-immunoprecipitation with HA-tagged PIPKIγ661 from HEK 293T cells. The source says: (§3) Two approaches were used to identify proteins that specifically interact with PIPKIγ661. […] As numerous focal adhesion proteins are tyrosine phosphorylated, the immunoprecipitates were immunoblotted with anti-phosphotyrosine antibodies. A tyrosine-phosphorylated protein of relative molecular mass 230,000 (Mᵣ 230K) was selectively immunoprecipitated with PIPKIγ661. This protein was identified as talin (Pasquale, et al. (1986) Proc. Natl Acad. Sci. USA 83:5507-5511; DeClue and Martin (1987) Mol. Cell Biol. 7:371-378). […] Only the PIPKIα/γ chimeras that target to focal adhesions associated with talin. To confirm the talin-PIPKIγ661 interaction, talin was immunoprecipitated from HEK293T cells overexpressing PIPKIγ661 or PIPKIγ635. Talin co-precipitated with PIPKIγ661, but not PIPKIγ635. It is known that endogenous PIPKIγ splice isoforms are widely expressed in various cell lines. When endogenous PIPKIγ was immunoprecipitated from a variety of cells types, talin association was consistently observed.
(§4) Immunoprecipitation was performed using standard methods (Zhang, et al. (1997) J. Biol. Chem. 272:17756-17761). […] The immunocomplexes were washed with Buffer A, separated by SDS-polyacrylamide gel electrophoresis (SDS-PAGE), and analyzed as indicated. […]

The target of a further test is T2, vinculin (UniProt P18206-2 1-1066, limits assumed).
T2 sequence (looked up): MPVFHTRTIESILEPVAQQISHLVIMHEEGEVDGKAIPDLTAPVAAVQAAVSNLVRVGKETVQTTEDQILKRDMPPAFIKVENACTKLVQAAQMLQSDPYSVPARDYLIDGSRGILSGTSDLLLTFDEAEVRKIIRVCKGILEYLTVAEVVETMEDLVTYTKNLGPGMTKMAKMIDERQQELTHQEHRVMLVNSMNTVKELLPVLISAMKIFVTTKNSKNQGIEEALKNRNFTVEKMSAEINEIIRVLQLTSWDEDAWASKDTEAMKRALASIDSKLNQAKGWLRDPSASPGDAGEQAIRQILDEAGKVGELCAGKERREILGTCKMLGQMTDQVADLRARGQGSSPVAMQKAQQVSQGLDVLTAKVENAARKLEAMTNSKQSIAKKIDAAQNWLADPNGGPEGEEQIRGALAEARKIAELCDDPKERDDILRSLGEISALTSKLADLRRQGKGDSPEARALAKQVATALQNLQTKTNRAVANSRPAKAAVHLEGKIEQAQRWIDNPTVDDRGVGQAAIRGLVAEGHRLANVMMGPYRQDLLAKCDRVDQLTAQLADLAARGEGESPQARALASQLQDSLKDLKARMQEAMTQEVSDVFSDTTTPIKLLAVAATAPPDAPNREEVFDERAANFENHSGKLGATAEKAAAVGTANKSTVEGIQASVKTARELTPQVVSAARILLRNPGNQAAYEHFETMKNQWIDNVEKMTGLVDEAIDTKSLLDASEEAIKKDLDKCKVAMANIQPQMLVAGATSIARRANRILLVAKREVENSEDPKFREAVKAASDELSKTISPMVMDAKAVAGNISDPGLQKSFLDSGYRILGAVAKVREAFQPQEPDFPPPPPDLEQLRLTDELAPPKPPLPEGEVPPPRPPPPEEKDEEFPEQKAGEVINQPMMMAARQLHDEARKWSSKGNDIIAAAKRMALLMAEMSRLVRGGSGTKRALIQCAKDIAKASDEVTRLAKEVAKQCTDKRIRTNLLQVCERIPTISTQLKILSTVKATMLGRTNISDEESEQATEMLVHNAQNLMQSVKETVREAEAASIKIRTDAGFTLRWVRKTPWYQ
The test is described as above.
Excerpt: as §3, §4

Test [3] addresses T3, talin (Homo sapiens (Human), UniProt Q9Y490 1-2541).
T3 construct: Endogenous talin of HEK293T (and other) cells, detected with anti-talin antibody; also called talin (endogenous, in cell lysates)
In words: co-immunoprecipitation from HEK293T cells in suspension versus adherent to type I collagen. As for the experimental part:
The association between PIPKIγ661 and talin was also regulated by adhesion to type I collagen. […] However, in suspended cells, the PIPKIγ661 association with talin was restored when cells were stimulated with lysophosphatidic acid (LPA) or platelet-derived growth factor (PDGF).
Immunoprecipitation was performed using standard methods (Zhang, et al. (1997) J. Biol. Chem. 272:17756-17761). Briefly, transfected HEK293T cells were harvested and lysed in Buffer A (50 mM Tris-HCl, pH 7.5, 150 mM NaCl, 0.1-1.0% NP-40, 5.0 mM NaF, 2 mM Na₃VO₄, 4 mM Na₂P₂O₇, 1 mM EDTA, 0.1 mM EGTA, 1 mM phenylmethyl sulphonyl fluoride (PMSF), 10% glycerol), centrifuged and incubated with protein A-Sepharose and 5 μg anti-HA, anti-c-Myc, anti-Flag, anti-PIPKIγ or anti-talin antibody as indicated at 4° C. for 4 hours to overnight. The immunocomplexes were washed with Buffer A, separated by SDS-polyacrylamide gel electrophoresis (SDS-PAGE), and analyzed as indicated. For the kinase assay, the immunocomplexes were washed and stored in kinase buffer.
The cells were harvested and washed with PBS, and suspended in serum-free DMEM at 37° C. for 1 hour. After stimulation with 10 ng/ml platelet-derived growth factor (PDGF) (R&D Systems Inc., Minneapolis, Minn.), 1 μuM LPA (Sigma, St. Louis) or serum at 37° C. for 15 minutes, cells were lysed as for immunoprecipitation. […]

Test [4] concerns the target T3, talin. The test is described as follows: peptide displacement of PIPKIγ661 (competitor) from talin in HEK293T cell lysates. As for the experimental part:
as §1

In test [5] the target is T3, talin. The test is described as follows: co-immunoprecipitation with talin.
The target in test [6] is T3, talin. The test is described as follows: co-immunoprecipitation of c-Myc-tagged chimeras.
Excerpt: as §3, §4

Square brackets hold non-standard residues; d marks the D form. Ends that are not written are not given here. pY = N[C@@H](Cc1ccc(OP(=O)(O)O)cc1)C(=O)O; pT = C[C@@H](OP(=O)(O)O)[C@H](N)C(=O)O

T3 sequence (Q9Y490 other isoform, or with tags, fused parts or gaps limits assumed): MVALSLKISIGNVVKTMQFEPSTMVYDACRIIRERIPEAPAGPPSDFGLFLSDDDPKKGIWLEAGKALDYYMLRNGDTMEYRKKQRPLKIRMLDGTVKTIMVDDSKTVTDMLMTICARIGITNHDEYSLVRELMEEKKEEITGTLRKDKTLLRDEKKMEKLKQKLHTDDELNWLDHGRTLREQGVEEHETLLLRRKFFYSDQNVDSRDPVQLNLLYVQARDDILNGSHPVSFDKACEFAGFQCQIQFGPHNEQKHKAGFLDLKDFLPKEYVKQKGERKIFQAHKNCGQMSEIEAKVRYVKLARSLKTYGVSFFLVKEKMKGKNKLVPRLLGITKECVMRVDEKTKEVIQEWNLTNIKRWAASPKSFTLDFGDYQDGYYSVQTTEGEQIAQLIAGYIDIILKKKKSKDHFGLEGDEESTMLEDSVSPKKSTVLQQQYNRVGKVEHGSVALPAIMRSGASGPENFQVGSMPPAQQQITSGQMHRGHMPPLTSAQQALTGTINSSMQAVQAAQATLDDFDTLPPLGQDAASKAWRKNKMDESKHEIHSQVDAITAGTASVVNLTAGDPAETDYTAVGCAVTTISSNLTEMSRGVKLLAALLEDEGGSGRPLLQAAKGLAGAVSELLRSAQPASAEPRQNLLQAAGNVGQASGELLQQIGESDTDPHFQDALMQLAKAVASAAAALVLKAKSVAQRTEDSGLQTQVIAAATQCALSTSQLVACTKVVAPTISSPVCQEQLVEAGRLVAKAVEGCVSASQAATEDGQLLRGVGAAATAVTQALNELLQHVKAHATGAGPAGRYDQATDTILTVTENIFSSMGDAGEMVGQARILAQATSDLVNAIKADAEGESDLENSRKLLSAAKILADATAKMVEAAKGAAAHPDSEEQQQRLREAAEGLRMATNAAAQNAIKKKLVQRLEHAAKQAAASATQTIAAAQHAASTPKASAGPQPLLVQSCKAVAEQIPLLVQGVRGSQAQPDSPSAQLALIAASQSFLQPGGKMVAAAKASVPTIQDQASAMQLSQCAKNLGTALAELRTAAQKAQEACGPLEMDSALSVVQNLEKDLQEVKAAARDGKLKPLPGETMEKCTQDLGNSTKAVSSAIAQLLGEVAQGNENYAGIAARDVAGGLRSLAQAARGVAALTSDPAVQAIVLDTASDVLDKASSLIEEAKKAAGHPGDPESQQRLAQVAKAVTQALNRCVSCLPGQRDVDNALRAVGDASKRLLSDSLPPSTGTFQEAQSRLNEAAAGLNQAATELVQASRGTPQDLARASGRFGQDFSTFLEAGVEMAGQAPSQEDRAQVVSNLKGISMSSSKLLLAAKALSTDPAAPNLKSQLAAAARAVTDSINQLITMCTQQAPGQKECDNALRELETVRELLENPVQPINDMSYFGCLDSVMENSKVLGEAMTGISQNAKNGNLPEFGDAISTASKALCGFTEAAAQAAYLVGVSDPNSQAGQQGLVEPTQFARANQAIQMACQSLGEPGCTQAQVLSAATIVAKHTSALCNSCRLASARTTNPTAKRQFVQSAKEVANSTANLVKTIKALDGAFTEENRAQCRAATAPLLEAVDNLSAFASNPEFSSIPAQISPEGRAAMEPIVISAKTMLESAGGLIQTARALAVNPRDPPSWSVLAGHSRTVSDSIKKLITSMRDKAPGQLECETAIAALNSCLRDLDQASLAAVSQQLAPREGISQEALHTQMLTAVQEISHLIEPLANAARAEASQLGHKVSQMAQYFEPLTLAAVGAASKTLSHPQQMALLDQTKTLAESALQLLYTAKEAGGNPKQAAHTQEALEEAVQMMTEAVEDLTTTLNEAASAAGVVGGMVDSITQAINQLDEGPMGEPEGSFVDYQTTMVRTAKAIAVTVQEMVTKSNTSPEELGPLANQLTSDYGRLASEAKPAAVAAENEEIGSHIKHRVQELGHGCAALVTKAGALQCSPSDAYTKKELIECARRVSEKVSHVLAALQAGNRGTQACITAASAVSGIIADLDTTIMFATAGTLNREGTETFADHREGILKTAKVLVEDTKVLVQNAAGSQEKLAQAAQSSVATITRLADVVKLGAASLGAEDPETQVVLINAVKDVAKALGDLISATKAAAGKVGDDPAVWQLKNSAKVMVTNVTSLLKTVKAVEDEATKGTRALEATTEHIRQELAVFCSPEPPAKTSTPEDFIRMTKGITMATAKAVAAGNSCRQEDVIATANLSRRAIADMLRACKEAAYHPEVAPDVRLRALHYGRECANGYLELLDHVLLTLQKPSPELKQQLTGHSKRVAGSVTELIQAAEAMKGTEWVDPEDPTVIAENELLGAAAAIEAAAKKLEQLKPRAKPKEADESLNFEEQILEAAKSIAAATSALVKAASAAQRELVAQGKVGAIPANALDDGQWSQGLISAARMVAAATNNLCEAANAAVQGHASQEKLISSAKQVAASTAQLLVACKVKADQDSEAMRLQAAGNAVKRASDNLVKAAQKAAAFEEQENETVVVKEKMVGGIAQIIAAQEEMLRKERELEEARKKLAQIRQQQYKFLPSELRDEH
T1 sequence (Q9Y490 1-435): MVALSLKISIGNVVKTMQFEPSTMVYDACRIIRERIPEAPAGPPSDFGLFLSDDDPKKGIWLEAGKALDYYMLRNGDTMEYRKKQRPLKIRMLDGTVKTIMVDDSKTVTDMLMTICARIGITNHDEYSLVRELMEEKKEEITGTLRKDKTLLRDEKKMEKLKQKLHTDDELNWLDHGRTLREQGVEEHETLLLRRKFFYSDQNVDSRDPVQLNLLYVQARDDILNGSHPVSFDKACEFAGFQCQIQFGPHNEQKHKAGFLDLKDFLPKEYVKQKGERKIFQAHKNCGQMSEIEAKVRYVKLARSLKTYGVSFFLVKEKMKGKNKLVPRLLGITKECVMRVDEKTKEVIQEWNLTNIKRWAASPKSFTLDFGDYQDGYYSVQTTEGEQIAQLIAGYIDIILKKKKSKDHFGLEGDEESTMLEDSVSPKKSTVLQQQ
tensin, sequence (Q9HBL0 whole entry): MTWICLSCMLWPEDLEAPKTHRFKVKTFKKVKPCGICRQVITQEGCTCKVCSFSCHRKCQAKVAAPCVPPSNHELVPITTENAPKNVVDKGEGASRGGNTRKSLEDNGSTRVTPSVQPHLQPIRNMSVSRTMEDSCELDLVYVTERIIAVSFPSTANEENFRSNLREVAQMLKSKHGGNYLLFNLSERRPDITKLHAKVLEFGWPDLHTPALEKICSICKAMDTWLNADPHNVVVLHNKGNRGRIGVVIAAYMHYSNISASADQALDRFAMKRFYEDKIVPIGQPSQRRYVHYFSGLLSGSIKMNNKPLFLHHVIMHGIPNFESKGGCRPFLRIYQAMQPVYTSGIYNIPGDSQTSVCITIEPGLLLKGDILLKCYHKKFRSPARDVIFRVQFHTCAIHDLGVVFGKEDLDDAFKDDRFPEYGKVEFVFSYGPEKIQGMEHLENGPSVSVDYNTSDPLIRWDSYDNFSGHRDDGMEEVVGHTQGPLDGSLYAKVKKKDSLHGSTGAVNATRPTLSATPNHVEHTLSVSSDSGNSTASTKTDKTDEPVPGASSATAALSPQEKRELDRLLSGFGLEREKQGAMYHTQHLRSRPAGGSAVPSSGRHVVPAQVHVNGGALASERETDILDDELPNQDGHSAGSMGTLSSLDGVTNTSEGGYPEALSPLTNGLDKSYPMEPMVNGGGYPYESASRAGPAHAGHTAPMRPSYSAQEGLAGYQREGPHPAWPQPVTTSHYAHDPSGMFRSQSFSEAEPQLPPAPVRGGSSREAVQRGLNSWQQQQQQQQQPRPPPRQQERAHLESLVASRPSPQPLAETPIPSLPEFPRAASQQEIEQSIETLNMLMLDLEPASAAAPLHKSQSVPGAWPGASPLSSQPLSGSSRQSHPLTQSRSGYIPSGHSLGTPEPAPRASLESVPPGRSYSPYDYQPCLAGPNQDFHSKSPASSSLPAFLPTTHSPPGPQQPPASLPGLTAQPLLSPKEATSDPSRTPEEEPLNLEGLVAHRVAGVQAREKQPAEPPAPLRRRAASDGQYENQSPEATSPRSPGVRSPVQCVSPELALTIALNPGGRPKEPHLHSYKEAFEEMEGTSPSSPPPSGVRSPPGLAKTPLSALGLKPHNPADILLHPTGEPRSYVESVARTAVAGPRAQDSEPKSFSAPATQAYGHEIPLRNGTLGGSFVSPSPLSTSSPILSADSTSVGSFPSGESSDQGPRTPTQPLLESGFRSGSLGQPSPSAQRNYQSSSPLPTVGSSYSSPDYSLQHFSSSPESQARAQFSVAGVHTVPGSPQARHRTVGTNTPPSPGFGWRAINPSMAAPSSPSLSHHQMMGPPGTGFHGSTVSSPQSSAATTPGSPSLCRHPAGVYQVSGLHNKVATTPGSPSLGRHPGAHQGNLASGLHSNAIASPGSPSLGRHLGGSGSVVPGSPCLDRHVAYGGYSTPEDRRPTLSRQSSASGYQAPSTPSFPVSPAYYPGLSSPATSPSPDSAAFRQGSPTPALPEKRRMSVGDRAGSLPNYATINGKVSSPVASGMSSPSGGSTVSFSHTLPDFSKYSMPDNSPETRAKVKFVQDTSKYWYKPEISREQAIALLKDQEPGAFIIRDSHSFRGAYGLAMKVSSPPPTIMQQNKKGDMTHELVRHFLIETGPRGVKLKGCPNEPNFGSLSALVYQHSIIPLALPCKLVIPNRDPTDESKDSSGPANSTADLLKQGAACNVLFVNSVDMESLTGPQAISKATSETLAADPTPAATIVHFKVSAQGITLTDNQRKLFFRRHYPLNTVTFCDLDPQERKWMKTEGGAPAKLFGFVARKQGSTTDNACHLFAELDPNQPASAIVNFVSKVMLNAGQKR

B1: PIPKIγ661 peptide pY649 (peptide)
peptide: CDERSWVYSPLH[pY]SAR
notes: Synthetic peptide with an added N-terminal Cys
For B1, the “fold higher affinity than the non-phosphorylated peptide” value in test [1] turned out to be 20 fold.

B2: β1-integrin tail peptide β1InpY (peptide)
peptide: CMNAKWDTGENPI[pY]KSA
modifications: not fully specified; printed as Cys-Met-Asn-Ala-Lys-Trp-Asp-*Thr-Gly-Glu-Asn-Pro-Ile-*Tyr-Lys-Ser-Ala
notes: also called phosphorylated Asn-Pro-Ile-Tyr peptide
In the case of B2, the binding result in test [2] is listed as “binds”.

B3: Haemagglutinin (HA)-tagged PIPKIγ661 (enzyme, not shown: small tags and cut ends)
chain: MELEVPDEAESAEAGAVTAEAAWSAESGAAAGMTQKKAGLAEAPLVTGQPGPGHGKKLGHRGVDASGETTYKKTTSSTLKGAIQLGIGYTVGNLSSKPERDVLMQDFYVMESIFFPSEGSNFTPAHHFQDFRFKTYAPVAFRYFRELFGIRPDDYLYSLCNEPLIELSNPGASGSVFYVTSDDEFIIKTVMHKEAEFLQKLLPGYYMNLNQNPRTLLPKFYGLYCVQSGGKNIRVVVMNNVLPRVVKMHLKFDLKGSTYKRRASKKEKEKSLPTYKDLDFMQDMPEGLLLDSDTFGALVKTLQRDCLVLESFKIMDYSLLLGVHNIDQQERERQAEGAQSKADEKRPVAQKALYSTAMESIQGGAARGEAIETDDTMGGIPAVNGRGERLLLHIGIIDILQSYRFIKKLEHTWKALVHDGDTVSVHRPSFYAERFFKFMSSTVFRKSSSLKSSPSKKGRGALLAVKPLGPTAAFSASQIPSEREDVQYDLRGARSYPTLEDEGRPDLLPCTPPSFEEATTASIATTLSSTSLSIPERSPSDTSEQPRYRRRTQSSGQDGRPQEEPHAEDLQKITVQVEPVCGVGVVPKEEGAGVEVPPCGASAAASVEIDAASQASEPASQASDEEDAPSTDIYFPTDERSWVYSPLHYSARPASDGESDT
notes: tyrosine phosphorylated in cells to an extent that depends on the conditions; also called Type I phosphatidylinositol phosphate kinase isoform γ661; HA-PIPKIγ661
With B3, the binding result is given as “no binding” with tensin, “no binding” in the test with vinculin and “binds” with talin [3].

B4: PIPKIγ661 peptide pY644 (peptide)
peptide: CDERSWV[pY]SPLHYSAR
notes: as for B1
Turning to B4, the “fold higher affinity than the non-phosphorylated peptide” value in test [1] turned out to be 20 fold.

B5: β1-integrin tail peptide β1InpT (peptide)
peptide: CMNAKWD[pT]GENPIYKSA
notes: Synthetic peptide; also called phosphorylated Trp-Asp-Thr peptide
Take B5: in test [2], the binding result was “binds”.

B6: PIPKIγ661 peptide PN (peptide)
peptide: CDERSWVYSPLHYSAR
notes: Synthetic peptide with an added N-terminal Cys; also called non-phosphorylated peptide; unphosphorylated peptide
Turning to B6, in the test with talin [4], the binding result is listed as “binds”.

B7: PIPKIγ661 peptide pY644/649 (peptide)
peptide: CDERSWV[pY]SPLH[pY]SAR
notes: Synthetic peptide with an added N-terminal Cys; also called dual phosphorylated peptide
Turning to B7, the “fold higher affinity than the non-phosphorylated peptide” value in test [1] worked out at 20 fold.

B8: PIPKIγ-W (enzyme)
chain: MELEVPDEAESAEAGAVTAEAAWSAESGAAAGMTQKKAGLAEAPLVTGQPGPGHGKKLGHRGVDASGETTYKKTTSSTLKGAIQLGIGYTVGNLSSKPERDVLMQDFYVMESIFFPSEGSNFTPAHHFQDFRFKTYAPVAFRYFRELFGIRPDDYLYSLCNEPLIELSNPGASGSVFYVTSDDEFIIKTVMHKEAEFLQKLLPGYYMNLNQNPRTLLPKFYGLYCVQSGGKNIRVVVMNNVLPRVVKMHLKFDLKGSTYKRRASKKEKEKSLPTYKDLDFMQDMPEGLLLDSDTFGALVKTLQRDCLVLESFKIMDYSLLLGVHNIDQQERERQAEGAQSKADEKRPVAQKALYSTAMESIQGGAARGEAIETDDTMGGIPAVNGRGERLLLHIGIIDILQSYRFIKKLEHTWKALVHDGDTVSVHRPSFYAERFFKFMSSTVFRKSSSLKSSPSKKGRGALLAVKPLGPTAAFSASQIPSEREDVQYDLRGARSYPTLEDEGRPDLLPCTPPSFEEATTASIATTLSSTSLSIPERSPSDTSEQPRYRRRTQSSGQDGRPQEEPHAEDLQKITVQVEPVCGVGVVPKEEGAGVEVPPCGASAAASVEIDAASQASEPASQASDEEDAPSTDIYFPTDERS
notes: The text says only that it lacks both Tyr644 and Tyr649; The end at Trp642 is inferred from the name; also called tail-truncation mutant of PIPKIγ661 lacking Tyr644 and Tyr649
B8: in the test with talin [5], the binding result is given as “no binding”.

B9: PIPKIα/γ635 chimera (c-Myc-tagged) (enzyme, not shown: small tags and cut ends)
chain: MASASSGPSSSVGFSSFDPAVPSCTLSSAASGIKRPMASEVLEARQDSYISLVPYASGMPIKKIGHRSVDSSGETTYKKTTSSALKGAIQLGITHTVGSLSTKPERDVLMQDFYVVESIFFPSEGSNLTPAHHYNDFRFKTYAPVAFRYFRELFGIRPDDYLYSLCSEPLIELCSSGASGSLFYVSSDDEFIIKTVQHKEAEFLQKLLPGYYMNLNQNPRTLLPKFYGLYCVQAGGKNIRIVVMNNLLPRSVKMHIKYDLKGSTYKRRASQKEREKPLPTFKDLDFLQDIPDGLFLDADMYNALCKTLQRDCLVLQSFKIMDYSLLMSIHNIDHAQREPLSSETQYSVDTRRPAPQKALYSTAMESIQGEARRGGTMETDDHMGGIPARNSKGERLLLYIGIIDILQSYRFVKKLEHSWKALVHDGDTVSVHRPGFYAERFQRFEDVQYDLRGARSYPTLEDEGRPDLLPCTPPSFEEATTASIATTLSSTSLSIPERSPSDTSEQPRYRRRTQSSGQDGRPQEEPHAEDLQKITVQVEPVCGVGVVPKEEGAGVEVPPCGASAAASVEIDAASQASEPASQASDEEDAPSTDIYF
notes: range 1-444
In the case of B9, the binding result with talin [6] is listed as “no binding”.
